Experimental findings from article PMC2731736, “cGMP-dependent protein kinase Iα associates with the antidepressant-sensitive serotonin transporter and dictates rapid modulation of serotonin uptake” (Molecular Brain, 2009) are described below.

Experiment [1] deals with T1, cGMP-dependent protein kinase II (PKGII), recombinant (UniProt Q13237 1-762).
T1 construct: cGMP-dependent protein kinase II; also called cGK2; source: insect cell cultures, Bacmid baculovirus expression system, purified to apparent homogeneity
T1 sequence (looked up): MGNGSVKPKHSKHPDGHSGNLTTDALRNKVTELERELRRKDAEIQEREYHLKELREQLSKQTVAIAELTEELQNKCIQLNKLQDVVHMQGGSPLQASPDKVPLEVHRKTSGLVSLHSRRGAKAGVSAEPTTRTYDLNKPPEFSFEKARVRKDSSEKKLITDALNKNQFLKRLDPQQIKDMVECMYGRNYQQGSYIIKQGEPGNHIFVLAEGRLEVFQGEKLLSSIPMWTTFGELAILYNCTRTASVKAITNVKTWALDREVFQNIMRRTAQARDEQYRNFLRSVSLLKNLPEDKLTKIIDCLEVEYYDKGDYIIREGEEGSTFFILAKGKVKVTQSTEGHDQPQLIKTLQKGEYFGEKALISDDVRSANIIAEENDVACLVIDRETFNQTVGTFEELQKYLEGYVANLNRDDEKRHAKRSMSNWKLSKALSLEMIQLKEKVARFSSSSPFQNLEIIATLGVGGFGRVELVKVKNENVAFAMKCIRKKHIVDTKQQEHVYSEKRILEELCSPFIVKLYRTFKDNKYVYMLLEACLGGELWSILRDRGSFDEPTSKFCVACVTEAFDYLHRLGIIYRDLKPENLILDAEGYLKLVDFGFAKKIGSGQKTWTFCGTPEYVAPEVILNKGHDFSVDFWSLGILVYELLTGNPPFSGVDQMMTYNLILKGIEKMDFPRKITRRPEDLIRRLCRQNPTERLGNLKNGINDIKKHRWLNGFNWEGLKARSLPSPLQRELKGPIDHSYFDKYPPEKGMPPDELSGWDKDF
Description: kinase inhibition assay (Ki from enzyme kinetics); purified recombinant kinases with multiple concentrations of DT-2; saturating peptide substrate …; PKG isoforms activated with 1 μM cGMP; PKC activated with 50 μg/μL phospholipids and 100 ng/mL 12-O-tetradecanoylphorbol-13-acetate. As to conditions: both partners purified.

Experiment [2] concerns the target T2, Recombinant protein kinase Cα (PKCα, human) (human, UniProt P17252 1-672).
T2 construct: protein kinase C alpha, human, recombinant; source: bought: Calbiochem
The experiment is described as above. The note with it: both partners purified.

The term Ki denotes the dissociation constant of the complex between target and ligand, obtained from inhibition or displacement. As to YGRKKRRQRRRPPLRKKKKKH (also called peptide DT-2) [DT-2], the values for the Ki in experiment [1] and in experiment [2] were 9.1 µM and 0.0266 µM, respectively.
